From US20210238283A1 (Y BIOLOGICS, published 2021)
Where a chain is given by its changes, count along the chain named.

B1: LAG3-1E09_CDR_1D04 (antibody, V domains shown)
VH: EVQLVESGGDLVKPGGSLRLSCAASGFSFSDHYMNWIRQAPGKGLEWVAYIDTSATYIYYADSVKGRFTISRDNAKNSLYLQMNSLRAEDTAVYYCARDNWGSLDYWGQGTLVTVSS
VL: DIQMTQSPSSLSASVGDRVTITCQASQDISNYLNWYQQKPGKAPNLLIYDASNLETGVPSRFSGSGSGTDFTLTISSLQPEDFATYYCQQSYITPYTFGQGTKLDIK
notes: Tested as full IgG
B2: LAG3-1E09_FR_1F03 (antibody, V domains shown)
VH: B1 VH with D10G
VL: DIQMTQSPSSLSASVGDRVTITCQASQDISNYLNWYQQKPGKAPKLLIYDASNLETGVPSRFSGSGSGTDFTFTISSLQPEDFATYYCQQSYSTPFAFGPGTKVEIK
notes: Tested as full IgG
B3: LAG3-1E09_FR_1E10 (antibody, V domains shown)
VH: B1 VH with D10G, I37V
VL: DIQMTQSPSSLSASVGDRVIITCQASQDITNYLNWYQQKPGKAPKLLIYDASNLETGVPSRFTGSGSGTDFTFTISSLQPEDIATYHCQQSYSTPPYTFGQGTKLEIK
notes: Tested as full IgG
B4: LAG3-1E09_AM_2E09 (antibody, V domains shown)
VH: B1 VH with I37V, S54N
VL: DIQMTQSSSSLSASVGDRVTITCQASQDITDFLNWYQQKPGKAPKLLIYDASNLETGIPSRFSGSGSGREFTLTINSLQPEDVASYYCQQSYTTPLTFGGGTKVDIK
notes: Tested as full IgG
B5: LAG3-1E09_AM_1E09 (antibody, V domains shown)
VH: B1 VH
VL: DIQMTQSPATLSVSPGERATLSCRASQSVMNNLAWYQQKPGQAPRLLIYDASNRATGIPARFSGSGSGTDFTLTISRLEPEDFAVYYCEQYVRSPYTFGQGTKLDIK
notes: Tested as full IgG
B6: LAG3-1E09_LS_1H04 (antibody, V domains shown)
VH: B1 VH
VL: DIQMTQSPSSLSASAGDRVTITCQASQDIRNSLSWYQQKPGKAPKLLIYDASNLETGVPSRFSGSGSGTYFTFTISSLQPEDFATYYCQQYDNVPVTFGGGTKLEIK
notes: Tested as full IgG
B7: LAG3-1E09_AM_1H07 (antibody, V domains shown)
VH: B1 VH with K13Q, S30N, I37V
VL: DIQMTQSPSSLSASVGDRVTITCQASQDISNYLNWYQQKPGKAPKLLIYEASSLESGVPSRFSGSGSGTEFTLTINSLQPEDFATYYCQQSYSTPFAFGPGTKVEIK
notes: Tested as full IgG
B8: LAG3-1E09_FR_1A06 (antibody, V domains shown)
VH: B1 VH with D10G, I37V
VL: DIQMTQSPGTLSMSPGEKATLSCRASQTVTTNLAWYQQKSGQAPRLLIYDASTRATGVPDRFSGSGSGTDFTLTISRLEPEDFAVYYCQQYGSSPYTFGQGTKLDIK
notes: Tested as full IgG
B9: LAG3-1E09_AM_1B03 (antibody, V domains shown)
VH: B1 VH with K13Q, S30N
VL: DIQMTQSPSSLSASVGDRVTMTCQASQDVSNYLNWYQQKPGKAPKLLIYDASNLEIGVPSRFSGSGSGTDFTFTISSLQPEDTATYYCQQYDHLPPYTFGQGTKLEIK
notes: Tested as full IgG
B10: LAG3-1E09_LS_1A10 (antibody, V domains shown)
VH: B1 VH
VL: not shown
notes: Tested as full IgG
B11: LAG3-1E09_LS_1G11 (antibody, V domains shown)
VH: B1 VH with K13Q, S28N, I37V, S54T
VL: B1 VL with S30D, N31K, N45K, I93S, Y96N
notes: Tested as full IgG
B12: LAG3-1E09_AM_2H06 (antibody, V domains shown)
VH: B1 VH with S28T, I37V, S54I
VL: B1 VL with K39T, N45K, S91G, I93G, F98Y, D105E
notes: Tested as full IgG
B13: LAG3-1E09_AM_2G11 (antibody, V domains shown)
VH: B1 VH with S30T, I37V
VL: B7 VL with Q24R, D28S, N31Y, K39R, E50D, S53N, S56T, S67T, N76S
notes: Tested as full IgG
B14: LAG3-1E09_FR_1A10 (antibody, V domains shown)
VH: B1 VH with D10G
VL: DIQMTQSPSSLSASVGDRVTITCQANQDISNYLNWYQQKPGKAPKLLIYDASNLETGVPSRFSGGGSGTDFTLTINNLQPEDFATYYCHHSYNTPITFGQGTRLEIK
notes: Tested as full IgG
B15: LAG3-1E09_CDR_1E03 (antibody, V domains shown)
VH: B1 VH with S28T, S30N, S54T
VL: B1 VL with P8L, R18S, Q37R, N45E, A51T, I93S, T94I, L104V, D105E
notes: Tested as full IgG
B16: LAG3-1E09_LS_1E06 (antibody, V domains shown)
VH: B1 VH
VL: B1 VL with N31H, Q37R, N45K, D70L, I93S, D105E
notes: Tested as full IgG
B17: LAG3-1E09_FR_1G07 (antibody, V domains shown)
VH: B1 VH with D10G, I37V
VL: DIQMTQSPSSLSASVGDRVTITCRASQGISTYLNWYQQKPGKAPKLLIYDASNLETGVPSRFSGSGSGTDFTLTISGLQPDDFALYYCQQSYTTPYSFGPGTKVEIK
notes: Tested as full IgG
B18: LAG3-1E09_AM_1F09 (antibody, V domains shown)
VH: B1 VH with S28N
VL: B1 VL with S30R, N34G, N53T, T74A, I93S, D105E
notes: Tested as full IgG
B19: LAG3-1E09_FR_1E09 (antibody, V domains shown)
VH: B1 VH with D10G
VL: B1 VL with T72A, Y92D, I93S, Y96I, K103R
notes: Tested as full IgG

Key:
[1] = biological target: T1, mouse LAG-3 overexpressed on HEK293E cells (mouse, UniProt Q61790 24-521); assay: flow cytometry, HEK293E cells overexpressing LAG-3, antibody 2 µg/ml
T1 construct: whole, on cells; also called HEK293E-mLAG3; mLAG3 (Mouse)
T1 sequence (looked up): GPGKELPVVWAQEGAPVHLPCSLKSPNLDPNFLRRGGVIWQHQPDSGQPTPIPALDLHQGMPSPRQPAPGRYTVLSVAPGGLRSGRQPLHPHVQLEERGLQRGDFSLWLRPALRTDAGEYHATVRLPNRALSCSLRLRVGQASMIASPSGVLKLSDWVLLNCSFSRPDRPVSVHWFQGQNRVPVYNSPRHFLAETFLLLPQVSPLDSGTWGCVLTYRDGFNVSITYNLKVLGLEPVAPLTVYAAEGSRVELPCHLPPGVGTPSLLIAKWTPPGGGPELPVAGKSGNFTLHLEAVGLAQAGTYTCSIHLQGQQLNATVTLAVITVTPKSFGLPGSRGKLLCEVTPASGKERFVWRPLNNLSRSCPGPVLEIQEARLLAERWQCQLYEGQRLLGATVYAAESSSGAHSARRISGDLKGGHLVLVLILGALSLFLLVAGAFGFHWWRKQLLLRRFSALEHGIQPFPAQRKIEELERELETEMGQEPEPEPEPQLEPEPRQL
Experimental: (§1) After that, the cells were washed three times with PBS containing 2% FBS and then subjected to the reaction for 30 minutes at 4° C. with anti-human IgG antibody (#FI-3000, Vectorlabs) linked with FITC fluorescent. The cells were washed by the same washing process as above followed by suspension in 0.2 ml PBS containing 2% FBS. The cells were then analyzed by FACSCanto II flow cytometer.

[2] = biological target: T2, human LAG-3 overexpressed on cells (human, UniProt P18627 23-525); assay: cell-based or functional assay
T2 sequence (looked up): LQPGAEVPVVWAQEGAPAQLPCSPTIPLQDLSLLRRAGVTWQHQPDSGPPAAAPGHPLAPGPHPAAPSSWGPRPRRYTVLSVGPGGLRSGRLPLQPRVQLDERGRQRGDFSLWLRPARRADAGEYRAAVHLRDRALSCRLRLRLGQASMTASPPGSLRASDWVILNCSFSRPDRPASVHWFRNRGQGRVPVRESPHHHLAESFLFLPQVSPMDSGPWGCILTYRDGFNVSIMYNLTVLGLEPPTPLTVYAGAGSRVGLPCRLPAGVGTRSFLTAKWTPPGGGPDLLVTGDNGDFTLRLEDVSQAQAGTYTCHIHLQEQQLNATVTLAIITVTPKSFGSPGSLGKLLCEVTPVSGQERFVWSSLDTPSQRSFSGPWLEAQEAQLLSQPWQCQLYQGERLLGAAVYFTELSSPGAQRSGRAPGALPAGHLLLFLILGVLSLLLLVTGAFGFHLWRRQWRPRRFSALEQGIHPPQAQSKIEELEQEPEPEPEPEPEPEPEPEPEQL

[3] = biological target: T3, recombinant human LAG-3-his (#16498-H08H, Sino Biological Inc.) (human, UniProt P18627 23-450); assay: scFv phage ELISA on coated antigen, A490
T3 construct: Bought; also called LAG-3-His (WT); not shown: His tag at the carboxy terminal
T3 sequence (looked up): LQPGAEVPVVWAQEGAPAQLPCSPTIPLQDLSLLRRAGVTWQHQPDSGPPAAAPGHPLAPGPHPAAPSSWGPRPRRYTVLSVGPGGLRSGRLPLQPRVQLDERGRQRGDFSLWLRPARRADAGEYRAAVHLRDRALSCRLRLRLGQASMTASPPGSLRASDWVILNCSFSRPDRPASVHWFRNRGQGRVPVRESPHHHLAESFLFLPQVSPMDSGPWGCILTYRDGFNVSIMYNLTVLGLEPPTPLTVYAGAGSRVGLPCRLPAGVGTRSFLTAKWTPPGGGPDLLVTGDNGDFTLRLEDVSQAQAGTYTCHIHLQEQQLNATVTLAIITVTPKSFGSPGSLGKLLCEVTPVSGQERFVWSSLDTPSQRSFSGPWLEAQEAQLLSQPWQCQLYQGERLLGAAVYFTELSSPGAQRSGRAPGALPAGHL

[4] = biological target: T2, human LAG-3 overexpressed on cells; assay: flow cytometry, HEK293E cells overexpressing LAG-3, antibody 2 µg/ml
Experimental: as §1

[5] = biological target: T1, mouse LAG-3 overexpressed on HEK293E …; assay: flow cytometry, HEK293E cells overexpressing mouse LAG-3
Experimental: as §1

| Binder | binding result [1] | EC50 (µg/ml), LAG3/MHC class II Blockade bioassay [2] [µg/mL] | binding result [3] | binding result [4] | binding result [5] |
| --- | --- | --- | --- | --- | --- |
| B1 | binds | 0.655 |  |  |  |
| B2 | binds | 0.485 |  |  |  |
| B3 | binds |  | binds | binds |  |
| B4 | binds | 0.482 |  |  |  |
| B5 |  |  |  | binds | no binding (tested: 2 µg/ml) |
| B6 |  | 0.284 |  |  | no binding (tested: 2 µg/ml) |
| B7 |  | 0.448 |  |  | no binding (tested: 2 µg/ml) |
| B8 |  |  |  | binds | no binding (tested: 2 µg/ml) |
| B9 |  | 1.82 |  |  | no binding (tested: 2 µg/ml) |
| B10 |  |  |  | binds | no binding (tested: 2 µg/ml) |
| B11 | binds | 1.51 |  |  |  |
| B12 | binds | 0.606 |  |  |  |
| B13 | binds | 0.246 |  |  |  |
| B14 | binds | 0.811 |  |  |  |
| B15 | binds | 1.06 |  |  |  |
| B16 | binds | 0.151 |  |  |  |
| B17 | binds | 0.242 |  |  |  |
| B18 |  | 0.488 |  |  | no binding (tested: 2 µg/ml) |
| B19 |  |  | binds | binds | no binding (tested: 2 µg/ml) |
